Kd data for two molecules are collected here from publication PMC5928183, “A Role for the Non-Receptor Tyrosine Kinase Abl2/Arg in Experimental Neuroinflammation” (Journal of Neuroimmune Pharmacology, 2018).

The target in the test is actin filaments (F-actin) from chicken skeletal muscle (chicken, UniProt P68139 1-377). Description: co-sedimentation; increasing amounts of Arg/Arg V1030M incubated with 1 μM actin filaments; 40 mM Hepes pH 7.25, 150 mM KCl, 2 mM MgCl2, 0.01% NP40, 4.5% glycerol; supernatant and pellet on SDS-PAGE, Coomassie R250 and densitometry; three trials. Particulars: both partners purified.

Positions count from the first letter of the chain named.

B1: Arg (Abl2/Arg non-receptor tyrosine kinase), valine at position 1030 (enzyme)
chain: MGQQVGRVGEAPGLQQPQPRGIRGSSAARPSGRRRDPAGRTADAGFNVFTQHDHFASCVEDGFEGDKTGGSSPEVLHRPFGCDAESQALNEAIRWSSKENLLGATESDPNLFVALYDFVASGDNTLSITKGEKLRVLGYNQNGEWSEVRSKNGQGWVPSNYITPVNSLEKHSWYHGPVSRSAAEYLLSSLINGSFLVRESESSPGQLSISLRYEGRVYHYRINTTTDSKVYVTAESRFSTLAELVHHHSTVADGLVTTLHYPAPKCNKPTVYGVSPIHDKWEMERTDITMKHKLGGGQYGEVYVGVWKKYSLTVAVKTFKEDTMEVEEFLKEAAVMKEIKHPNLVQLLGVCTLEPPFYIVTEYMPYGNLLDYLRECSREEVTAVVLLYMATQISSAMEYLEKKNFIHRDLAARNCLVGENHVVKVADFGLSRLMTGDTYTAHAGAKFPIKWTAPESLAYNTFSIKSDVWAFGVLLWEIATYGMSPYPGIDLSQVYDLLEKGYRMEQPEGCPPKVYELMRACWKWSPADRPSFAETHQAFETMFHDSSISEEVAEELGRTASSSSVVPYLPRLPLLPSKTRTLRKQGENKENLDGGLDAAESLASSSAPAGFIRSTQASSGSPALPRKQRDKSPSSLLEDAKETCFTRDRKGGFFSSFMKKRNAPTPPKRSSSFREMENQPHKKYELTGNFSPVASLQNADGFSVAPSQQEPNLVPAKCYGGSFAQRNLCADDDSGGGGGSGTAGGGWSGITGFFTPRLIKKTLGLRAGKPTASDDTSKPFPRSNSTSSMSSGLPEQDRMAMTLPRNCQRSKLQLERTVSTSSQPEENVDRANDMLPKKSEEGAAPARERPKAKLLPRGATALPLRAPDPAITESDSPGVGVAGVAAAPKGKERNGGTRLGVAGVPEDGEQLGWSSPAKAVAVLPTTHNHKVPVLISPTLKHTPADVQLIGTDSQGNKFKLLSEHQVTSSGDKDRPRRVKPKCAPPPPPVMRLLQHPSTCSDPEEEPTAPPAGQHTPETQEGGKKAAPGPVPSSGKPGRPVMPPPQVPLPTSSISPAKMANGTAGTKVALRKTKQAAEKISADKISKEALLECADLLSSAITEPVPNSQLVDTGHQLLDYCSGYVDSIPQTRNKFAFREAVSKLELSLQELQVSSTAAGVPGTNPVLNNLLSCVQEISDVVQR
notes: SNP rs30466582); neither tags nor construct limits are stated here; also called Arg_1030V; Abelson related gene; source: Hi5 cells via baculoviral vectors, purified as previously described (Wang et al., 2001)
For orientation: Kd means the free concentration of one partner at which half of the binding sites on the other are occupied at equilibrium, for simple one-to-one binding. In the case of B1, binding was characterised by a dissociation constant (Kd) of 710 ± 500 nM.

B2: Arg V1030M (enzyme)
chain: B1 chain with V1030M
notes: SNP rs30466582); neither tags nor construct limits are stated here; also called Arg_1030M; source: Hi5 cells via baculoviral vectors, purified as previously described (Wang et al., 2001)
B2 registered a dissociation constant (Kd) of 860 ± 640 nM.
